How the values were obtained:
[1] = target: T1, GATA3 neoORF (frameshift mutation of GATA3), common region peptide on HLA-A*02:01 (human); assay: Summary statement of the same IL-2 peptide titration with TCR-transduced Jurkat cells and peptide loaded HEK 293T cells; full-length, on cells
[2] = target: T1, GATA3 neoORF (frameshift mutation of …); assay: IL-2 release (Meso Scale Discovery) by TCR-transduced Jurkat cells, 10:1 with HEK 293T cells (endogenous HLA-A02:01) loaded overnight with titrated GATA3 peptide; FIG. 44; full-length, on cells

EC50 of peptide [1]: < 40 nM | EC50 of peptide [2]: 37.9 nM
B1: GATA3 specific TCR clonotype 1 (TCR, V domains shown)
Valpha: SQKIEQNSEALNIQEGKTATLTCNYTNYSPAYLQWYRQDPGRGPVFLLLIRENEKEKRKERLKVTFDTTLKQSLFHITASQPADSATYLCALDIYGNNRLAFGKGNQVVVIP
Vbeta: DVKVTQSSRYLVKRTGEKVFLECVQDMDHENMFWYRQDPGLGLRLIYFSYDVKMKEKGDIPEGYSVSREKKERFSLILESASTNQTSMYLCASSLDFVLAGSYSYNEQFFGPGTRLTVL

— patent publication US20210275657A1 (published 2021)
